target: T1, PUF4 RNA-binding domain (Saccharomyces cerevisiae, UniProt P25339 537-888); assay: Mg; RNA-MaP; 20 mM Na-HEPES pH 7.4, 30 mM KOAc, 0.75 mM MgCl2, 0.1% Tween-20, 5% glycerol, 0.1 mg/mL BSA, 2 mM DTT; 25 C; 0.0125-409.6 nM protein; conditions: tags: N-His6-TEV cleaved; C-SNAP kept, Cy3B-labelled; label: tethered on chip by stalled RNA polymerase
T1 sequence: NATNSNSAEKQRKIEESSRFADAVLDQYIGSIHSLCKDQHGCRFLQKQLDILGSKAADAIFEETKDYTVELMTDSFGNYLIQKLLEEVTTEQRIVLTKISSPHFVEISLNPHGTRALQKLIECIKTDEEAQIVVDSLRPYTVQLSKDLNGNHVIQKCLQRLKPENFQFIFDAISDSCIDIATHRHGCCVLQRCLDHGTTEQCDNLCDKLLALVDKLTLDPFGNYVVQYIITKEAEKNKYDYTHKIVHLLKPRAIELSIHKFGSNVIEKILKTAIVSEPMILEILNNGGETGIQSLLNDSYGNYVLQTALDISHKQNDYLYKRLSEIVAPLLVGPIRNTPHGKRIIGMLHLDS

Row | Binder | Kd [nM]
1 | UCUCUUUGACACUAUUAUCUCUCUU (ssRNA) [Id_ii_S1_P4E.4_K4.3_C4.2_[C-2T]_[T-1G]_H4.3_A4.1_F4.1_T4.2_[G10T]_[T11C]] | > 2300
2 | UCUCUUUCACACUAUUAUCUCUCUU (ssRNA) [Id_ii_S1_P4E.4_K4.3_C4.2_[C-2T]_[T-1C]_H4.3_A4.1_F4.1_T4.2_[G10T]_[T11C]] | > 2300
3 | UCUCUUCAUAUAUAUUAAUUCUCUU (ssRNA) [Id_ii_S1_P4E.3_K4.2_C4.2_[T-1A]_H4.2_A4.1_F4.1_T4.2_[G10A]] | 36.3
4 | UCUCUUCUUAUAUAUUAUUUCUCUU (ssRNA) [Id_ii_S1_P4E.3_K4.2_C4.2_H4.2_A4.1_F4.1_T4.2_[G10T]] | 15.7
5 | UCUCUUGCACACUAUUAUCUCUCUU (ssRNA) [Id_ii_S1_P4E.4_K4.3_C4.2_[C-2G]_[T-1C]_H4.3_A4.1_F4.1_T4.2_[G10T]_[T11C]] | 91.3
6 | UCUCUUGUACACUAUUAAUUCUCUU (ssRNA) [Id_ii_S1_P4E.4_K4.3_C4.2_[C-2G]_H4.3_A4.1_F4.1_T4.2_[G10A]] | 1.04
7 | UCUCUUUGUGUACUAUCUCUU (ssRNA) [Ib_S1_P4E.1_K4.1_C4.1_H4.1_[A4G]_A4.1_[T7C]_F4.1_T4.1] | 6.14
8 | UCUCUUUGACACUAUUAUAUCUCUU (ssRNA) [Id_ii_S1_P4E.4_K4.3_C4.2_[C-2T]_[T-1G]_H4.3_A4.1_F4.1_T4.2_[G10T]_[T11A]] | 2180
9 | UCUCUUUGACACUAUUAGCUCUCUU (ssRNA) [Id_ii_S1_P4E.4_K4.3_C4.2_[C-2T]_[T-1G]_H4.3_A4.1_F4.1_T4.2_[T11C]] | > 2300
10 | UCUCUUCAUAUAUAUUAGCUCUCUU (ssRNA) [Id_ii_S1_P4E.3_K4.2_C4.2_[T-1A]_H4.2_A4.1_F4.1_T4.2_[T11C]] | 8.31
11 | UCUCUUUCACACUAUUACUUCUCUU (ssRNA) [Id_ii_S1_P4E.4_K4.3_C4.2_[C-2T]_[T-1C]_H4.3_A4.1_F4.1_T4.2_[G10C]] | > 2300
12 | UCUCUUCUUAUAUAUUAUAUCUCUU (ssRNA) [Id_ii_S1_P4E.3_K4.2_C4.2_H4.2_A4.1_F4.1_T4.2_[G10T]_[T11A]] | 27.7
13 | UCUCUUGUACACUAUUAAAUCUCUU (ssRNA) [Id_ii_S1_P4E.4_K4.3_C4.2_[C-2G]_H4.3_A4.1_F4.1_T4.2_[G10A]_[T11A]] | 0.983
14 | UCUCUUGUACACUAUUAGUUCUCUU (ssRNA) [Id_ii_S1_P4E.4_K4.3_C4.2_[C-2G]_H4.3_A4.1_F4.1_T4.2] | 1.27
15 | UCUCUUGCACACUAUUACGUCUCUU (ssRNA) [Id_ii_S1_P4E.4_K4.3_C4.2_[C-2G]_[T-1C]_H4.3_A4.1_F4.1_T4.2_[G10C]_[T11G]] | 408
16 | UCUCUUUAACACUAUUAUUUCUCUU (ssRNA) [Id_ii_S1_P4E.4_K4.3_C4.2_[C-2T]_[T-1A]_H4.3_A4.1_F4.1_T4.2_[G10T]] | > 2300
17 | UCUCUUUGACACUAUUACAUCUCUU (ssRNA) [Id_ii_S1_P4E.4_K4.3_C4.2_[C-2T]_[T-1G]_H4.3_A4.1_F4.1_T4.2_[G10C]_[T11A]] | > 2300
18 | UCUCUUGCACACUAUUACUUCUCUU (ssRNA) [Id_ii_S1_P4E.4_K4.3_C4.2_[C-2G]_[T-1C]_H4.3_A4.1_F4.1_T4.2_[G10C]] | 74.1
19 | UCUCUUCUUAUAUAUUACGUCUCUU (ssRNA) [Id_ii_S1_P4E.3_K4.2_C4.2_H4.2_A4.1_F4.1_T4.2_[G10C]_[T11G]] | 16.6

Row | Binder | Kd [nM]
20 | UCUCUUGCACACUAUUAAUUCUCUU (ssRNA) [Id_ii_S1_P4E.4_K4.3_C4.2_[C-2G]_[T-1C]_H4.3_A4.1_F4.1_T4.2_[G10A]] | 93.8
21 | UCUCUUGUACACUAUUAUCUCUCUU (ssRNA) [Id_ii_S1_P4E.4_K4.3_C4.2_[C-2G]_H4.3_A4.1_F4.1_T4.2_[G10T]_[T11C]] | 0.681
22 | UCUCUUCAUAUAUAUUAGGUCUCUU (ssRNA) [Id_ii_S1_P4E.3_K4.2_C4.2_[T-1A]_H4.2_A4.1_F4.1_T4.2_[T11G]] | 18.2
23 | UCUCUUGUACACUAUUAACUCUCUU (ssRNA) [Id_ii_S1_P4E.4_K4.3_C4.2_[C-2G]_H4.3_A4.1_F4.1_T4.2_[G10A]_[T11C]] | 0.968
24 | UCUCUUUGACACUAUUACUUCUCUU (ssRNA) [Id_ii_S1_P4E.4_K4.3_C4.2_[C-2T]_[T-1G]_H4.3_A4.1_F4.1_T4.2_[G10C]] | > 2300
25 | UCUCUUGCACACUAUUAACUCUCUU (ssRNA) [Id_ii_S1_P4E.4_K4.3_C4.2_[C-2G]_[T-1C]_H4.3_A4.1_F4.1_T4.2_[G10A]_[T11C]] | 69.5
26 | UCUCUUGCACACUAUUAAAUCUCUU (ssRNA) [Id_ii_S1_P4E.4_K4.3_C4.2_[C-2G]_[T-1C]_H4.3_A4.1_F4.1_T4.2_[G10A]_[T11A]] | 131
27 | UCUCUUGCACACUAUUAUAUCUCUU (ssRNA) [Id_ii_S1_P4E.4_K4.3_C4.2_[C-2G]_[T-1C]_H4.3_A4.1_F4.1_T4.2_[G10T]_[T11A]] | 351
28 | UCUCUUCAUAUAUAUUAGAUCUCUU (ssRNA) [Id_ii_S1_P4E.3_K4.2_C4.2_[T-1A]_H4.2_A4.1_F4.1_T4.2_[T11A]] | 19.9
29 | UCUCUUCUUAUAUAUUACAUCUCUU (ssRNA) [Id_ii_S1_P4E.3_K4.2_C4.2_H4.2_A4.1_F4.1_T4.2_[G10C]_[T11A]] | 13.5
30 | UCUCUUCAUAUAUAUUAGUUCUCUU (ssRNA) [Id_ii_S1_P4E.3_K4.2_C4.2_[T-1A]_H4.2_A4.1_F4.1_T4.2] | 8.18
31 | UCUCUUGCACACUAUUACAUCUCUU (ssRNA) [Id_ii_S1_P4E.4_K4.3_C4.2_[C-2G]_[T-1C]_H4.3_A4.1_F4.1_T4.2_[G10C]_[T11A]] | 99.1
32 | UCUCUUGUACACUAUUAUUUCUCUU (ssRNA) [Id_ii_S1_P4E.4_K4.3_C4.2_[C-2G]_H4.3_A4.1_F4.1_T4.2_[G10T]] | 0.832
33 | UCUCUUUGUUUAGUAUCUCUU (ssRNA) [Ib_S1_P4E.1_K4.1_C4.1_H4.1_[A4T]_A4.1_[T7G]_F4.1_T4.1] | 24.4
34 | UCUCUUUGUCUAAUAUCUCUU (ssRNA) [Ib_S1_P4E.1_K4.1_C4.1_H4.1_[A4C]_A4.1_[T7A]_F4.1_T4.1] | 83.9
35 | UCUCUUCUUAUAUAUUAUGUCUCUU (ssRNA) [Id_ii_S1_P4E.3_K4.2_C4.2_H4.2_A4.1_F4.1_T4.2_[G10T]_[T11G]] | 12.2
36 | UCUCUUGCACACUAUUAGUUCUCUU (ssRNA) [Id_ii_S1_P4E.4_K4.3_C4.2_[C-2G]_[T-1C]_H4.3_A4.1_F4.1_T4.2] | 347
37 | UCUCUUGUACACUAUUAUAUCUCUU (ssRNA) [Id_ii_S1_P4E.4_K4.3_C4.2_[C-2G]_H4.3_A4.1_F4.1_T4.2_[G10T]_[T11A]] | 1.07
38 | UCUCUUUGACACUAUUACCUCUCUU (ssRNA) [Id_ii_S1_P4E.4_K4.3_C4.2_[C-2T]_[T-1G]_H4.3_A4.1_F4.1_T4.2_[G10C]_[T11C]] | > 2300

Row | Binder | Kd [nM]
39 | UCUCUUCUUAUAUAUUACUUCUCUU (ssRNA) [Id_ii_S1_P4E.3_K4.2_C4.2_H4.2_A4.1_F4.1_T4.2_[G10C]] | 18.3
40 | UCUCUUCUUAUAUAUUAAUUCUCUU (ssRNA) [Id_ii_S1_P4E.3_K4.2_C4.2_H4.2_A4.1_F4.1_T4.2_[G10A]] | 18.9
41 | UCUCUUUGACACUAUUAACUCUCUU (ssRNA) [Id_ii_S1_P4E.4_K4.3_C4.2_[C-2T]_[T-1G]_H4.3_A4.1_F4.1_T4.2_[G10A]_[T11C]] | > 2300
42 | UCUCUUCUUAUAUAUUAGUUCUCUU (ssRNA) [If_S1_P4E.3_K4.2_C4.2_H4.2_A4.1_F4.1_T4.2] | 7.55
43 | UCUCUUGUACACUAUUAGCUCUCUU (ssRNA) [Id_ii_S1_P4E.4_K4.3_C4.2_[C-2G]_H4.3_A4.1_F4.1_T4.2_[T11C]] | 0.962
44 | UCUCUUGUACACUAUUACCUCUCUU (ssRNA) [Id_ii_S1_P4E.4_K4.3_C4.2_[C-2G]_H4.3_A4.1_F4.1_T4.2_[G10C]_[T11C]] | 0.615
45 | UCUCUUUGACACUAUUAUUUCUCUU (ssRNA) [Id_ii_S1_P4E.4_K4.3_C4.2_[C-2T]_[T-1G]_H4.3_A4.1_F4.1_T4.2_[G10T]] | > 2300
46 | UCUCUUUGUAUUACUAUCUCUU (ssRNA) [Ia_S1_P5E.1_K5.1_C5.1_H5.1_A5.1_F5.1_[T8C]_T5.1] | 9.98
47 | UCUCUUCUUAUAUAUUAGCUCUCUU (ssRNA) [Id_ii_S1_P4E.3_K4.2_C4.2_H4.2_A4.1_F4.1_T4.2_[T11C]] | 7.8
48 | UCUCUUUCACACUAUUACCUCUCUU (ssRNA) [Id_ii_S1_P4E.4_K4.3_C4.2_[C-2T]_[T-1C]_H4.3_A4.1_F4.1_T4.2_[G10C]_[T11C]] | > 2300
49 | UCUCUUUGUGUAAUAUCUCUU (ssRNA) [Ib_S1_P4E.1_K4.1_C4.1_H4.1_[A4G]_A4.1_[T7A]_F4.1_T4.1] | 10.4
50 | UCUCUUCUUAUAUAUUAAAUCUCUU (ssRNA) [Id_ii_S1_P4E.3_K4.2_C4.2_H4.2_A4.1_F4.1_T4.2_[G10A]_[T11A]] | 43.5
51 | UCUCUUCUUAUAUAUUAUCUCUCUU (ssRNA) [Id_ii_S1_P4E.3_K4.2_C4.2_H4.2_A4.1_F4.1_T4.2_[G10T]_[T11C]] | 13.9
52 | UCUCUUUGUAGCUUAUCUCUU (ssRNA) [Ic_S1_P4E.1_K4.1_C4.1_H4.1_A4.1_[T5G]_[A6C]_F4.1_T4.1] | 28.6
53 | UCUCUUCAUAUAUAUUAACUCUCUU (ssRNA) [Id_ii_S1_P4E.3_K4.2_C4.2_[T-1A]_H4.2_A4.1_F4.1_T4.2_[G10A]_[T11C]] | 39.7
54 | UCUCUUUAACACUAUUAGCUCUCUU (ssRNA) [Id_ii_S1_P4E.4_K4.3_C4.2_[C-2T]_[T-1A]_H4.3_A4.1_F4.1_T4.2_[T11C]] | > 2300
55 | UCUCUUUAACACUAUUACUUCUCUU (ssRNA) [Id_ii_S1_P4E.4_K4.3_C4.2_[C-2T]_[T-1A]_H4.3_A4.1_F4.1_T4.2_[G10C]] | > 2300
56 | UCUCUUUGUAUAUCUCUCUU (ssRNA) [Ia_S1_P3E.1_K3.1_C3.1_H3.1_A3.1_F3.1_[A8C]_T3.1] | 14.8
57 | UCUCUUGCACACUAUUAUUUCUCUU (ssRNA) [Id_ii_S1_P4E.4_K4.3_C4.2_[C-2G]_[T-1C]_H4.3_A4.1_F4.1_T4.2_[G10T]] | 71

— publication PMC9352680, “A comprehensive thermodynamic model for RNA binding by the Saccharomyces cerevisiae Pumilio protein PUF4”
